Reference: publication PMC4304120

How the values were obtained:
[1] = target: thrombin; assay: SPR; BIAcore T100; thrombin (2000 RU) amine-coupled to a CM5 chip; RGD-hirudin or mutants injected at 30 uL/min in 10 mM HEPES, 150 mM NaCl, 0.005% Surfactant P20, pH 7.5; 1:1 Langmuir fit, KD calculated from ka and kd
[2] = target: thrombin

| Substance | Kd [1] [nM] | koff [1] [s⁻¹] | kon [1] [M⁻¹ s⁻¹] | anti-thrombin specific activity (Titration Testing Method, plasma clotting) [2] [ATU/mg] |
| --- | --- | --- | --- | --- |
| RGD-hirudin D55A | 1030 | 0.000383 | 371 | 12000 |
| RGD-hirudin E57A | 2410 | 0.000374 | 155 | 11000 |
| recombinant RGD-hirudin | 15.5 | 2.73e-05 | 1770 | 18000 |
| RGD-hirudin Y3A | – | 0.00288 | – | 4000 |
| RGD-hirudin I59A | 19000 | 0.00139 | 73 | 9000 |
| RGD-hirudin S50A | 35 | 3.94e-05 | 1120 | 16000 |
| RGD-hirudin Q53A | 570 | 3.37e-05 | 59.2 | 14000 |
